# Reference: patent publication US20220177594A1 (ZOETIS SERVICES, published 2022)
# Molecular target: T1, ANTIBODY EXPRESSION CONTROL
# T1 construct: also called mouse anti-canine antibody (capture reagent of the expression control ELISA)
# Test: SPR Biacore, expression control
# Protocol: The affinity with which candidate mAbs bind canine, feline, and human (SEQ ID NO: 122; Human_OSMR) (R&D Systems, Minneapolis, Minn.) OSMR was determined using surface plasmon resonance (SPR) on a Biacore system (Biacore Life Sciences (GE Healthcare), Uppsala, Sweden). To avoid affinity differences associated with differential surface preparation that can occur when immobilizing antibodies to surfaces; OSMR from each species was directly conjugated to individual surfaces. Immobilization was obtained by amine coupling 5 μg/mL OSMR using N-hydroxysuccinimide (NHS)/1-Ethyl-3-(3-dimethylaminopropyl) carbodiimide (EDC) chemistry. Chips were quenched with ethanolamine and the affinity with which all candidate mAbs bound to the immobilized OSMR was evaluated. All curves were fit to a 1:1 model. […] Results for affinity measurements are described herein.
# Data from an ELISA represents an equilibrium state where the antibody is allowed to associate and dissociate over a one-hour period resulting in steady-state binding. Using Biacore, the target protein is immobilized to a surface and the antibody is passed over this surface in a mobile liquid phase. Protein-protein interaction is determined from changes in the surface resonance which allows for calculation of association (kₐ), disassociation (kd), and affinity constant (KD). While not wishing to be bound to one hypothesis we present data from ELISA and Biacore experiments, using the same preparation of antibody, that may result in agreement between the two methods with respect to binding but also may show contradictory results due to the nature of the binding kinetics and different assay dynamics. The data presented in Table A (in combination with experimental results from yeast display mutational analysis in Example 21) allow for the definition of a structure:function relationship to be defined between the anti-OSMR antibodies described here and their ability to bind and block IL-31 and OSM-mediated signaling through the OSMR receptor.
Kd [nM],koff [s⁻¹],kon [M⁻¹ s⁻¹],Binder
0.0685,8.32e-05,1.21e+06,"Mu_02D09_VH (SEQ ID NO: 31)_D31A (antibody, V domains shown) VH: EVQLVESGGGLVKPGGSLTLSCAASGFTFSAYGMHWLRQAPEKGLEWVAYISSGSRAVFFADTVKGRFTISRDNAKNTLFLQMTSLRSDDTAMYYCARDRYDGRGFAYWGQGTLVTVSA VL: DIVLTQSPATLSVTPGDSVSLSCRASQSISNNLHWYQQTSHESPRLLITYASQSISGIPSRFSGSGSGTDFTLSINSVETEDFGMYFCQQSNSWPLTFGAGTKLELKR"
0.0019,2.45e-07,129000,"Mu_02D09_VH (SEQ ID NO: 31)_D62A (antibody, V domains shown) VH: EVQLVESGGGLVKPGGSLTLSCAASGFTFSDYGMHWLRQAPEKGLEWVAYISSGSRAVFFAATVKGRFTISRDNAKNTLFLQMTSLRSDDTAMYYCARDRYDGRGFAYWGQGTLVTVSA VL: DIVLTQSPATLSVTPGDSVSLSCRASQSISNNLHWYQQTSHESPRLLITYASQSISGIPSRFSGSGSGTDFTLSINSVETEDFGMYFCQQSNSWPLTFGAGTKLELKR"
0.366,4.43e-05,121000,"Mu_02D09_VH (SEQ ID NO: 31)_Y32A (antibody, V domains shown) VH: EVQLVESGGGLVKPGGSLTLSCAASGFTFSDAGMHWLRQAPEKGLEWVAYISSGSRAVFFADTVKGRFTISRDNAKNTLFLQMTSLRSDDTAMYYCARDRYDGRGFAYWGQGTLVTVSA VL: DIVLTQSPATLSVTPGDSVSLSCRASQSISNNLHWYQQTSHESPRLLITYASQSISGIPSRFSGSGSGTDFTLSINSVETEDFGMYFCQQSNSWPLTFGAGTKLELKR"
0.00259,3.68e-07,142000,"Mu_02D09_VH (SEQ ID NO: 31)_Y50A (antibody, V domains shown) VH: EVQLVESGGGLVKPGGSLTLSCAASGFTFSDYGMHWLRQAPEKGLEWVAAISSGSRAVFFADTVKGRFTISRDNAKNTLFLQMTSLRSDDTAMYYCARDRYDGRGFAYWGQGTLVTVSA VL: DIVLTQSPATLSVTPGDSVSLSCRASQSISNNLHWYQQTSHESPRLLITYASQSISGIPSRFSGSGSGTDFTLSINSVETEDFGMYFCQQSNSWPLTFGAGTKLELKR"
1.63,0.000384,235000,"Mu_02D09_VH (SEQ ID NO: 31)_D99A (antibody, V domains shown) VH: EVQLVESGGGLVKPGGSLTLSCAASGFTFSDYGMHWLRQAPEKGLEWVAYISSGSRAVFFADTVKGRFTISRDNAKNTLFLQMTSLRSDDTAMYYCARARYDGRGFAYWGQGTLVTVSA VL: DIVLTQSPATLSVTPGDSVSLSCRASQSISNNLHWYQQTSHESPRLLITYASQSISGIPSRFSGSGSGTDFTLSINSVETEDFGMYFCQQSNSWPLTFGAGTKLELKR"
0.547,7.4e-05,135000,"Mu_02D09_VH (SEQ ID NO: 31)_D102A (antibody, V domains shown) VH: EVQLVESGGGLVKPGGSLTLSCAASGFTFSDYGMHWLRQAPEKGLEWVAYISSGSRAVFFADTVKGRFTISRDNAKNTLFLQMTSLRSDDTAMYYCARDRYAGRGFAYWGQGTLVTVSA VL: DIVLTQSPATLSVTPGDSVSLSCRASQSISNNLHWYQQTSHESPRLLITYASQSISGIPSRFSGSGSGTDFTLSINSVETEDFGMYFCQQSNSWPLTFGAGTKLELKR"
0.0233,7.55e-06,323000,"Mu_02D09_VH (SEQ ID NO: 31)_S52A (antibody, V domains shown) VH: EVQLVESGGGLVKPGGSLTLSCAASGFTFSDYGMHWLRQAPEKGLEWVAYIASGSRAVFFADTVKGRFTISRDNAKNTLFLQMTSLRSDDTAMYYCARDRYDGRGFAYWGQGTLVTVSA VL: DIVLTQSPATLSVTPGDSVSLSCRASQSISNNLHWYQQTSHESPRLLITYASQSISGIPSRFSGSGSGTDFTLSINSVETEDFGMYFCQQSNSWPLTFGAGTKLELKR"
0.28,4.11e-05,147000,"Mu_02D09_VH (SEQ ID NO: 31)_Y101A (antibody, V domains shown) VH: EVQLVESGGGLVKPGGSLTLSCAASGFTFSDYGMHWLRQAPEKGLEWVAYISSGSRAVFFADTVKGRFTISRDNAKNTLFLQMTSLRSDDTAMYYCARDRADGRGFAYWGQGTLVTVSA VL: DIVLTQSPATLSVTPGDSVSLSCRASQSISNNLHWYQQTSHESPRLLITYASQSISGIPSRFSGSGSGTDFTLSINSVETEDFGMYFCQQSNSWPLTFGAGTKLELKR"

# More lines, now with the values behind:
Binder,Kd [nM],koff [s⁻¹],kon [M⁻¹ s⁻¹]
"Mu_02D09_VL (SEQ ID NO: 33)_I29A (antibody, V domains shown) VH: EVQLVESGGGLVKPGGSLTLSCAASGFTFSDYGMHWLRQAPEKGLEWVAYISSGSRAVFFADTVKGRFTISRDNAKNTLFLQMTSLRSDDTAMYYCARDRYDGRGFAYWGQGTLVTVSA VL: DIVLTQSPATLSVTPGDSVSLSCRASQSASNNLHWYQQTSHESPRLLITYASQSISGIPSRFSGSGSGTDFTLSINSVETEDFGMYFCQQSNSWPLTFGAGTKLELKR",0.714,9.47e-05,133000
"Mu_02D09_VH (SEQ ID NO: 31)_R104A (antibody, V domains shown) VH: EVQLVESGGGLVKPGGSLTLSCAASGFTFSDYGMHWLRQAPEKGLEWVAYISSGSRAVFFADTVKGRFTISRDNAKNTLFLQMTSLRSDDTAMYYCARDRYDGAGFAYWGQGTLVTVSA VL: DIVLTQSPATLSVTPGDSVSLSCRASQSISNNLHWYQQTSHESPRLLITYASQSISGIPSRFSGSGSGTDFTLSINSVETEDFGMYFCQQSNSWPLTFGAGTKLELKR",0.229,2.41e-05,105000
"Mu_02D09_VL (SEQ ID NO: 33)_S56A (antibody, V domains shown) VH: EVQLVESGGGLVKPGGSLTLSCAASGFTFSDYGMHWLRQAPEKGLEWVAYISSGSRAVFFADTVKGRFTISRDNAKNTLFLQMTSLRSDDTAMYYCARDRYDGRGFAYWGQGTLVTVSA VL: DIVLTQSPATLSVTPGDSVSLSCRASQSISNNLHWYQQTSHESPRLLITYASQSIAGIPSRFSGSGSGTDFTLSINSVETEDFGMYFCQQSNSWPLTFGAGTKLELKR",0.844,0.000111,132000
"Mu_02D09_VH (SEQ ID NO: 31)_H35A (antibody, V domains shown) VH: EVQLVESGGGLVKPGGSLTLSCAASGFTFSDYGMAWLRQAPEKGLEWVAYISSGSRAVFFADTVKGRFTISRDNAKNTLFLQMTSLRSDDTAMYYCARDRYDGRGFAYWGQGTLVTVSA VL: DIVLTQSPATLSVTPGDSVSLSCRASQSISNNLHWYQQTSHESPRLLITYASQSISGIPSRFSGSGSGTDFTLSINSVETEDFGMYFCQQSNSWPLTFGAGTKLELKR",0.803,0.000112,139000
"Mu_02D09_VL (SEQ ID NO: 33)_Q27A (antibody, V domains shown) VH: EVQLVESGGGLVKPGGSLTLSCAASGFTFSDYGMHWLRQAPEKGLEWVAYISSGSRAVFFADTVKGRFTISRDNAKNTLFLQMTSLRSDDTAMYYCARDRYDGRGFAYWGQGTLVTVSA VL: DIVLTQSPATLSVTPGDSVSLSCRASASISNNLHWYQQTSHESPRLLITYASQSISGIPSRFSGSGSGTDFTLSINSVETEDFGMYFCQQSNSWPLTFGAGTKLELKR",1.2,0.00019,158000
"Mu_02D09_VH (SEQ ID NO: 31)_G33A (antibody, V domains shown) VH: EVQLVESGGGLVKPGGSLTLSCAASGFTFSDYAMHWLRQAPEKGLEWVAYISSGSRAVFFADTVKGRFTISRDNAKNTLFLQMTSLRSDDTAMYYCARDRYDGRGFAYWGQGTLVTVSA VL: DIVLTQSPATLSVTPGDSVSLSCRASQSISNNLHWYQQTSHESPRLLITYASQSISGIPSRFSGSGSGTDFTLSINSVETEDFGMYFCQQSNSWPLTFGAGTKLELKR",0.0225,7.35e-06,327000
